Data from patent US20200138864A1 (CRAGE MEDICAL, published 2020).
Changes are numbered by the printed parent chain.

B1: antigen binding unit 2 (ABU2) (scFv)
scFv: GVQLVESGAEVKKPGASVKVSCKASGYTFTELSMHWVRQAPGKGLEWMGLVDPEDGETIYAEKFQGRVTITADTSTDTAYMELSSLRSEDTAVYYCATDLAAGTNDYWGKGTLVTVSSGGGGSGGGGSGGGGSQAVVTQEPSVTVSPGGTVTLTCGSDTGAVTSGHYPYWFQQKPGQAPRTLIYDTSNKHSWTPARFSGSLLGGKAALTLSGAQPDDEADYYCLLSYSGEWVFGGGTKVTVL
notes: also called parent ABU2; parental ABU2
B2: ABU2 (ScFv_Fc) (Fc fusion, not shown: a dimerising Fc or GST)
scFv: B1 scFv
notes: The format is printed only on the sheet; also called parent ABU2 as scFv-Fc
B3: ABU4 (scFv)
scFv: B1 scFv with D52V, E54A
B4: ABU5 (scFv)
scFv: B1 scFv with D52V, E54D
B5: ABU3 (ScFv_Fc) (Fc fusion, not shown: a dimerising Fc or GST)
scFv: B1 scFv with T159S, A161P, S164R, Y184D, N188R
notes: The format is printed only on the sheet

How the values were obtained:
[1] = target: T1, reference peptide RMFS1 complexed with HLA on T2 cells (T2/RMFS1); experiment: flow cytometry on T2/RMFS1 cells
T1 construct: whole, on cells

[2] = target: T2, reference peptide RMFS2 complexed with HLA on T2 cells (T2/RMFS2); experiment: flow cytometry on T2/RMFS2 cells
T2 construct: whole, on cells

[3] = target: T3, RMF/HLA.A0201 complex (WT1 peptide RMF complexed with recombinant HLA.A0201-BSP and human β2m) (human, labeled with a biotinylation kit (BirA) on the BSP); experiment: SPR (Biacore T200), 1:1 Langmuir fit
T3 construct: also called RMF/HLA complex; WT1 peptide (RMF) complexed with HLA; not shown: biotin protein ligase BirA substrate peptide (BSP)

[4] = target: T3, RMF/HLA.A0201 complex (WT1 peptide RMF …); experiment: ELISA with 2.5, 0.5 and 0.2 ug/ml RMF/HLA complex, scFv clone

| Binder | Kd [3] [nM] | binding result [4] | further results |
| --- | --- | --- | --- |
| B1 |  |  | binding result [1]: no binding; binding result [2]: no binding |
| B2 | 1.47 |  |  |
| B3 |  | binds |  |
| B4 |  | binds |  |
| B5 | 0.0467 |  |  |
